Test results as given in paper PMC12199414, “A Self‐Assembling LYTAC Mediates CTGF Degradation and Remodels Inflammatory Tumor Microenvironment for Triple‐Negative Breast Cancer Therapy” (Advanced Science, 2025).

Key:
[1] = GSH response of NanoCLY (HPLC); assay type: physicochemical
Description: For in vitro experiments, NanoCLY (0.1 mg mL^−1) was incubated with varying concentrations of GSH (0, 2, 25 × 10^−5 M) in PBS at 37 °C for 6 h. After incubation, the aliquots were analyzed by NanoSight (Malvern Panalytical, UK), HPLC (Agilent, USA), and TEM (JEOL, Japan). For in vivo experiments, when tumor volume reached about 200 mm^3, mice were intratumorally injected with 50 µL NanoCLY (2.5 mg kg^−1), or NanoCLY (2.5 mg kg^−1) with a 20‐min preinjection of H2O2 (2.5 × 10^−2 M). Tumors were collected after 4 h for HPLC analysis.
(§1) For the DLS assay, NanoCLY solution was mixed with 50% mouse plasma and incubated for different time periods. After incubation, the aliquots were analyzed using DLS. For the NanoCLY stability assay under simulated plasma GSH conditions, NanoCLY solution was mixed with 1.5 × 10^−6 M GSH or 20% mouse plasma, and was incubated for different time periods. After incubation, the aliquots were diluted and analyzed by HPLC.

[2] = Plasma stability assay; assay type: in vitro ADME; settings: 50% mouse plasma (DLS) and 20% mouse plasma or 1.5 × 10^−6 M GSH (HPLC), different time periods, n = 3
Description: as §1

[3] = system: red blood cells; assay: Hemolysis assay; assay type: cell-based, mice; settings: mouse erythrocytes, 0-30 × 10^−6 M, 1 h, 37 °C, absorbance 570 nm
Description: The hemolytic activities of CL8, CL8‐M6P3, and NanoCLY were determined by monitoring hemoglobin release from red blood cells. Fresh erythrocytes were obtained from the whole blood of mice by centrifugation (1000 × g for 30 min at 4 °C), and washed three times with cold 0.9% NaCl. The erythrocytes were dispensed into 96‐well plates, incubated with CL8, CL8‐M6P3 and NanoCLY at specified concentrations (0, 0.3, 1, 3, 10, and 30 × 10^−6 M) for 1 h at 37 °C, centrifuged at 1000 × g for 10 min, the supernatant samples were collected, and the absorbance at 570 nm was measured by microplate reader Cytation 5 (Biotek, USA). The negative control group was defined as the absorbance obtained in 1× PBS (A PBS), and 100% hemolysis in 0.1%Triton X‐100 (v/v) (A Triton). The hemolysis percentage was calculated as: (A peptide − A PBS)/(ATriton − A PBS) × 100%.

[4] = molecular target: T1, CTGF (Homo sapiens, UniProt P29279); assay: ELISA of extracellular CTGF in culture media of TNBC cells; assay type: cell-based; settings: in vitro, BT549 and MDA-MB-231 culture media, 12 h
T1 construct: endogenous in cells; host or cells: BT549 and MDA-MB-231 (human TNBC cell lines)
T1 sequence (P29279 27-349): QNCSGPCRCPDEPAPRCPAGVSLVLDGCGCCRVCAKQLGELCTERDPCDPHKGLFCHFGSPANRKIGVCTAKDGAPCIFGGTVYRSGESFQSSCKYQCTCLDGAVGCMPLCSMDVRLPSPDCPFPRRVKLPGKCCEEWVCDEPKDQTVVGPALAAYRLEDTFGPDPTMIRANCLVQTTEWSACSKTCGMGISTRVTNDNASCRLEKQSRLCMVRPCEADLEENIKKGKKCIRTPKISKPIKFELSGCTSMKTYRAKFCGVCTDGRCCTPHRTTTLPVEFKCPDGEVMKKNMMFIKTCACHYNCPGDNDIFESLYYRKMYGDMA
Description: BT549 and MDA‐MB‐231 cells were treated with various concentrations of CL8‐M6P3 or NanoCLY for 12 h. Extracellular CTGF protein level in conditioned media was quantified by a human CTGF ELISA kit following the manufacturer's instructions (ab261851, Abcam and CSB‐E07875h, Cusabio). Extracellular CCN1, CCN3, and CCN4 protein levels were quantified using respective ELISA kits (HY‐P7842, HY‐P701327, HY‐P78051, MCE) following the manufacturer's instructions (CSB‐EL015956HU, CSB‐EL026119HU, CSB‐E13884h, Cusabio). Additionally, BSP and β‐CTx levels in serum were quantified by ELISA kit following the manufacturer's instructions (BPE10823, BPE10438, lengton).

[5] = system: MDA‐MB‐231‐Luc cells; assay: Lung metastasis model; assay type: in vivo, BALB/c nude mice; settings: 10 mg kg^−1 i.v. every 2 days, 12 times, bioluminescence day 12, 18, 24, n = 3
Description: Exponentially grown 5 × 10^5 MDA‐MB‐231‐Luc cells were suspended in 100 µL of PBS and intravenously injected into female nude BALB/c mice. The mice were randomly divided into […] (n = 3) and treated with PBS, 10 mg kg^−1 NanoCLY via intravenous injection every 2 days for 12 times in total. The growth of lung metastatic tumors was monitored by VISQUE In Vivo Elite after intraperitoneal injection of 20 mg kg^−1 D‐luciferin on day 12, day 18, and day 24. At the end of monitoring on day 24, the lungs were photographed and fixed, and H&E staining. Metastatic areas on the lung surface were quantified by ImageJ software.

[6] = Stability of nanoparticles in PBS; assay type: physicochemical; settings: PBS pH 7.4, 37 °C, n = 3
[7] = Critical micelle concentration with pyrene; assay type: physicochemical; settings: pyrene fluorescence I390/I380, aqueous solution, sonicated 2 h
Description: The CMC value of NanoCLY in an aqueous solution was estimated by pyrene. Pyrene with the final concentration of 6.08 mg L^−1 was added 100 µL to Eppendorf tubes and dried overnight, and was added with 500 µL of various concentrations of NanoCLY (0.001, 0.006, 0.0125, 0.025, 0.05, 0.2, 0.6 mg mL^−1), and sonicated for 2 h. After sonicating, the supernatant samples were collected, and recorded the intensity ratios of I390/I380 by microplate reader Cytation 5 (Biotek, USA). The crossing point of the two linear fittings of the logarithm of NanoCLY concentrations was set as the CMC value.

In the case of “C12-CPSAAHYL-PEG3-[Pra(M6P)βAla]3-NH2 [NanoCLY, CL8-M6P3 joined to a lauryl chain via disulfide; self-assembling GSH-responsive LYTAC nanoparticle]”, the “stability under plasma-mimicking GSH” value ([1]; GSH 1.5 × 10⁻⁶ M, analytical HPLC 214 nm) is reported as “remained stable”, the “disulfide linker cleavage at TME-relevant GSH” value ([1]; GSH 2 × 10⁻⁵ and 2.5 × 10⁻⁴ M in PBS, 37 °C, 6 h, NanoCLY 0.1 mg mL^−1, analytical HPLC 214 nm) is reported as “selective cleavage of the disulfide linker” and the “size and structural integrity under plasma conditions” value [2] is reported as “retained its size and structural integrity”. For the same substance, the hemolysis safety [3] was “good hemolysis safety”, the “extracellular CTGF degraded” value [4] was “≈ 50%” and the “lung colonization by MDA-MB-231 cells” value [5] was “significantly reduced lung colonization”. The “stability in PBS (size and PDI)” value [6] was “at least 72 h” and the critical micelle concentration (CMC) [7] was 55.1 µg/mL.
